From article doi:10.1101/2023.07.14.549122 come the findings set out here.

In data set [1] the target is Crenotalea thermophila SPARTA complex (heterodimer of TIR-APAZ and short pAgo) (Crenotalea thermophila). As to the kind of experiment: cryo-EM structure.
In data set [2] the target is T1, short pAgo (SPARTA);TIR-APAZ (SPARTA) (Crenotalea thermophila;Crenotalea …, UniProt A0A1I7NFD7;A0A1I7NFG5 1-507;1-450, |).
T1 sequence 1: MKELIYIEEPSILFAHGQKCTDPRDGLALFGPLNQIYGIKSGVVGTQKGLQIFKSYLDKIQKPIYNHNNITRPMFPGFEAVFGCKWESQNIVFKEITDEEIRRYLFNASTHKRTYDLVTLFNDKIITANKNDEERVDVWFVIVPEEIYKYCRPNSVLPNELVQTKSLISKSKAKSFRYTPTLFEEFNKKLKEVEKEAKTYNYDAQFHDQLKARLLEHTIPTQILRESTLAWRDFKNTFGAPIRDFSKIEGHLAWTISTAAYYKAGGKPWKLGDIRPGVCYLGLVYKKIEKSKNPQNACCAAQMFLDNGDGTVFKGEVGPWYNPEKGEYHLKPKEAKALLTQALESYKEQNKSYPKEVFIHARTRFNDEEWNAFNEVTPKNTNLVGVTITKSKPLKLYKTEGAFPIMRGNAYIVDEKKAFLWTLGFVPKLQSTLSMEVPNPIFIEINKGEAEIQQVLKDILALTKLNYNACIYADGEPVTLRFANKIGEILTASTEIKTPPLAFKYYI
T1 sequence 2: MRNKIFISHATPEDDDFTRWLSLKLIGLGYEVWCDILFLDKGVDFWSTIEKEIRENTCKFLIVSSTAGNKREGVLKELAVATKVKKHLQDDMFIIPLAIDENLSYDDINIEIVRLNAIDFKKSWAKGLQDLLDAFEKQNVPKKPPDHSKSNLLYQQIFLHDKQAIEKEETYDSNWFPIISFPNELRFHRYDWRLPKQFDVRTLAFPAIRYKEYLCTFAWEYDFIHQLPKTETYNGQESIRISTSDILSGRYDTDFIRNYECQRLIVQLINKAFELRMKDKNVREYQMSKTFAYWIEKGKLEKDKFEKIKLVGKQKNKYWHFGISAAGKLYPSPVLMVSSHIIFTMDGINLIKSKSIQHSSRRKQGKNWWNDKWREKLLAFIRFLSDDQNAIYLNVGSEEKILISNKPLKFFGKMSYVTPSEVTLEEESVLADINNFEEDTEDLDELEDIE
Put plainly: cryoEM structure.

By stoichiometry N is commonly meant the number of molecules, sites or subunits per partner or assembly. In turn, “Crenotalea thermophila SPARTA complex (heterodimer of TIR-APAZ and short pAgo)” returned a stoichiometry N in data set [1] of 4.

B1: gRNA-target ssDNA (25 nt target) (DNA:RNA)
RNA: AAACGGCUCUAAUCUAUUAGU
DNA: CAACTAATAGATTAGAGCCGTTTAT
modifications: 5'-phosphate on gRNA
For the molecule B1, the binding result in data set [2] is “binds”.
